Measurements taken from publication PMC11100808.

Target: biotinylated human CK1δ catalytic domain (CK1δ ΔC) (human) (UniProt P48730)
Test: BLI

Substance: LIN-42 CK1BD + Tail (from UniProt Q65ZG8 402-597) (domain or fragment)
- Kd: 209 nM
